Key:
MMP-8 = MMP-8 (Homo sapiens, UniProt P22894); experiment: Cleavage by recombinant protease MMP-8; type: biochemical; conditions: initial rate, recombinant MMP-8
Protocol: (§1) In this example, the peptides library was subjected to cleavage screening by biological matrices, i.e., tumor conditioned media (TCM). The cleavage of the peptides library by plasma was performed for comparison. Each peptide in the library includes a fluorescent mark at one end of its sequence and a quencher on the other end of the sequence. Upon cleavage of the peptide, the quencher is separated from the fluorescent mark, thereby releasing the fluorescent mark. The peptide substrates with the highest ratio of (initial rate of cleavage by tumor conditioned media (TCM) - initial rate of cleavage by plasma) in pmol/min, from cancer patients were identified.
(§2) The peptides with high ratio of initial rate of cleavage by tumor conditioned media (TCM) to initial rate of cleavage by plasma were further screened using recombinant proteases. The peptide substrates that have high initial rates (uM/h) of cleavage by recombinant proteases were identified (Table 4).

MMP-14 = MMP-14 (Homo sapiens, UniProt P50281); experiment: Cleavage by recombinant protease MMP-14; type: biochemical; conditions: initial rate, recombinant MMP-14
Protocol: as §1, §2

[1] = system: H&N tumor conditioned media (TCM) and plasma; experiment: Fluorescence-quencher peptide cleavage screening, H&N tumor conditioned media versus plasma; type: biochemical, human; conditions: Head and Neck cancer patients; fluorophore/quencher-labelled peptide
Protocol: as §1

[2] = system: RCC tumor conditioned media (TCM) and plasma; experiment: Fluorescence-quencher peptide cleavage screening, RCC tumor conditioned media versus plasma; type: biochemical, human; conditions: RCC patients; fluorophore/quencher-labelled peptide
Protocol: as §1

CatB = CatB (Homo sapiens, UniProt P07858); experiment: Cleavage by recombinant protease Cathepsin B; type: biochemical; conditions: initial rate
Protocol: as §1, §2

MMP-1 = target: T1, MMP-1 (Homo sapiens, UniProt P03956); experiment: Cleavage by recombinant protease MMP-1; type: biochemical; conditions: initial rate, recombinant MMP-1
T1 sequence (P03956 100-469): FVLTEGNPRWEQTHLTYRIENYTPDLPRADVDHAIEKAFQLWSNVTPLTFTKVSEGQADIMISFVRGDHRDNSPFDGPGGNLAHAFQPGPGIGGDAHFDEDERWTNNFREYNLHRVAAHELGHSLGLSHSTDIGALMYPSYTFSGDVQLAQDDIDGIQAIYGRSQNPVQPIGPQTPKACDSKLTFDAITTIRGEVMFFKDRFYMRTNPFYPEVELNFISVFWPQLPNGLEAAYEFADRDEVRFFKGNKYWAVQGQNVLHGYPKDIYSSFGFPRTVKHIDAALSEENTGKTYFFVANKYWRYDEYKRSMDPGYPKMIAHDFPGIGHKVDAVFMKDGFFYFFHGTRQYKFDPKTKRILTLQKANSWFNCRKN
Protocol: as §1, §2

MMP-2 = target: T2, MMP-2 (Homo sapiens, UniProt P08253); experiment: Cleavage by recombinant protease MMP-2; type: biochemical; conditions: initial rate, recombinant MMP-2
T2 sequence (P08253 110-660): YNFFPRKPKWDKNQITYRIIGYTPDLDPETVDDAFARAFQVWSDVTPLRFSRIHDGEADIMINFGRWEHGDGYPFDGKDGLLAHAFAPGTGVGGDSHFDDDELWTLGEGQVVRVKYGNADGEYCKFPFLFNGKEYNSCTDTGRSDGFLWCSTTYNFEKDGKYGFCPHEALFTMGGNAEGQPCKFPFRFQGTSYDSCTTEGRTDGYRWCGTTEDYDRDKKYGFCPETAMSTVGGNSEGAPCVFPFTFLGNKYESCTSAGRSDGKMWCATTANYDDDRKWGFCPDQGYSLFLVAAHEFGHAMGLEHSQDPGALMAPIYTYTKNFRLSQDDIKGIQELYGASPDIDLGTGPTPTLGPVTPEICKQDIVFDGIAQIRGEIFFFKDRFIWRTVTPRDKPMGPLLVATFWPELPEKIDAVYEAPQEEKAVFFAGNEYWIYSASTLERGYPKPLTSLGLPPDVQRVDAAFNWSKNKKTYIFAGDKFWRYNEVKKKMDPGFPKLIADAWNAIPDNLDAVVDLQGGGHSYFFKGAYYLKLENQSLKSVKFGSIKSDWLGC
Protocol: as §1, §2

MMP-7 = target: T3, MMP-7 (Homo sapiens, UniProt P09237); experiment: Cleavage by recombinant protease MMP-7; type: biochemical; conditions: initial rate, recombinant MMP-7
T3 sequence (P09237 95-267): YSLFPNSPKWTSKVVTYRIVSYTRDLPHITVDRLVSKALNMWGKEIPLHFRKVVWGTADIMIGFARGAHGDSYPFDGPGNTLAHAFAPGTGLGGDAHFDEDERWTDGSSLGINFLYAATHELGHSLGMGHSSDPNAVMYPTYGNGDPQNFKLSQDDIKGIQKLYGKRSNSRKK
Protocol: as §1, §2

MMP-9 = MMP-9 (Homo sapiens, UniProt P14780); experiment: Cleavage by recombinant protease MMP-9; type: biochemical; conditions: initial rate, recombinant MMP-9
Protocol: as §1, §2

MMP-10 = MMP-10 (Homo sapiens, UniProt P09238); experiment: Cleavage by recombinant protease MMP-10; type: biochemical; conditions: initial rate, recombinant MMP-10
Protocol: as §1, §2

[3] = patients who received a 5-minute intravenous (IV) infusion; product label; cited from earlier work
[4] = system: 'NAT' (Normal Adjacent Tissue) culture supernatant; experiment: Cleavage of synthetic peptides in NAT culture supernatant (MSP-MS); type: biochemical; conditions: for Earliest cleaved time point -NAT: NAT culture supernatant, MSP-MS; for NAT + CFZ: cleavage in NAT culture supernatant, carfilzomib (CFZ) in the incubation media, given as fraction x/5
Protocol: (§3) Sequences comprising cleavage peptides […] (SEQ ID NO: 1) or […] (SEQ ID NO:2) (shown in bold below) were incubated in either ‘NAT’ (Normal Adjacent Tissue) or ‘RCC’ (Renal Cell Carcinoma) culture supernatants, to test the specificity of each peptide’s cleavage. Carfilzomib (CFZ) is also included in the incubation media as an inhibitor of proteosome, to inhibit false positive cleavage.
(§4) To this end, peptide sequencing by mass spectrometry was used to identify cleaved fragments produced for the synthetic peptides shown in the table below, using a published technique called multiplexed substrate profiling by mass spectrometry (MSP-MS) (O’Donoghue A.J. et al. Nat Methods. 2012 Nov;9(11):1095-100.) Cleavages were monitored in these reactions over time, and the peptides found to be cleaved in the earliest time points were deemed to be most sensitive to proteolytic activity in the conditioned media samples.

[5] = system: 'RCC' (Renal Cell Carcinoma) culture supernatant; experiment: Cleavage of synthetic peptides in RCC culture supernatant (MSP-MS); type: biochemical; conditions: for Earliest cleaved time point -RCC: RCC culture supernatant, MSP-MS; for RCC + CFZ: cleavage in RCC culture supernatant, carfilzomib (CFZ) in the incubation media, given as fraction x/5
Protocol: as §3, §4

MMP-8, sequence (P22894 101-467): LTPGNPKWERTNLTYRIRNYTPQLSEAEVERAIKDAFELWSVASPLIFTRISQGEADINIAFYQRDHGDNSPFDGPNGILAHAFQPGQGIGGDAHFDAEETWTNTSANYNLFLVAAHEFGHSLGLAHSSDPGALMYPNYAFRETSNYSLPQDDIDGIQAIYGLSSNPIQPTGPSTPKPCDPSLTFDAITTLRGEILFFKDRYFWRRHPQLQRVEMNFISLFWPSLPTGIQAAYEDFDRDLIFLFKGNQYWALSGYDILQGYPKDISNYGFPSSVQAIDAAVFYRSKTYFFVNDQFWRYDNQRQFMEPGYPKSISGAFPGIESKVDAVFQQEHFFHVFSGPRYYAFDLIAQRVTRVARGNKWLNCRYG
MMP-9, sequence (P14780 94-707): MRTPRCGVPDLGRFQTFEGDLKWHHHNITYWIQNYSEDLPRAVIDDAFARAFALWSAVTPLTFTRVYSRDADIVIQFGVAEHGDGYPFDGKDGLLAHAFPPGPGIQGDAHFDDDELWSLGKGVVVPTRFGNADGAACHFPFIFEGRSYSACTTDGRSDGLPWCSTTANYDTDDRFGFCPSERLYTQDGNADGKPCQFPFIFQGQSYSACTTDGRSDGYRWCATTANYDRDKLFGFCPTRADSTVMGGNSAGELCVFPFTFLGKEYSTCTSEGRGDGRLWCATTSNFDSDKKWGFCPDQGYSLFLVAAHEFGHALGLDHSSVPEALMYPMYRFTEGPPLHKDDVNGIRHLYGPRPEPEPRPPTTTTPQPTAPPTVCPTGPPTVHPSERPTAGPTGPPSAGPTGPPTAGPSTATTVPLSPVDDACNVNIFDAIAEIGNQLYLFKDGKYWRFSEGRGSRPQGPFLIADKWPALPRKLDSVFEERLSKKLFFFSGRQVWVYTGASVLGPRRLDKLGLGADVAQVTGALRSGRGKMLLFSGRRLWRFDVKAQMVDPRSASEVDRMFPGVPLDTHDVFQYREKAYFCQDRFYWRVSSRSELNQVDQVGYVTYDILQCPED
MMP-10, sequence (P09238 99-476): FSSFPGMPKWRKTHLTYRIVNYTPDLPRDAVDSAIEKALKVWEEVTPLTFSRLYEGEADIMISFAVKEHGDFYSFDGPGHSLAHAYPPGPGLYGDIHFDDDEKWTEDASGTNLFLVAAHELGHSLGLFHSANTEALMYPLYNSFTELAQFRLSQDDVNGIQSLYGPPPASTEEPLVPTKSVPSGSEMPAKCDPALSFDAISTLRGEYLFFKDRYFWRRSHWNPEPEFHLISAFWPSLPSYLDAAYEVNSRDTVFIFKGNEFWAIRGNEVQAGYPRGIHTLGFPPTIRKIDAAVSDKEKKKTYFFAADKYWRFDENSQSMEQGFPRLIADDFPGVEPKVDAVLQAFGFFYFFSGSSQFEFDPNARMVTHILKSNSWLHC

| Substance | Rates of cleavage by recombinant proteases, MMP-8 (MMP-8) [µM/h] | Rates of cleavage by recombinant proteases, MMP-14 (MMP-14) [µM/h] | Initial cleavage rate difference, tumor conditioned media minus plasma [1] [pmol/min] | Initial cleavage rate in tumor conditioned media minus initial cleavage rate in plasma [2] [pmol/min] | Rates of cleavage by recombinant proteases, CatB (CatB) [µM/h] | Rates of cleavage by recombinant proteases, MMP-1 (MMP-1) [µM/h] | Rates of cleavage by recombinant proteases, MMP-2 (MMP-2) [µM/h] | Rates of cleavage by recombinant proteases, MMP-7 (MMP-7) [µM/h] | Rates of cleavage by recombinant proteases, MMP-9 (MMP-9) [µM/h] | Rates of cleavage by recombinant proteases, MMP-10 (MMP-10) [µM/h] | half-life [3] [h] | Earliest cleaved time point -NAT [4] [min] | NAT + CFZ [4] | Earliest cleaved time point -RCC [5] [min] | RCC + CFZ [5] |
| --- | --- | --- | --- | --- | --- | --- | --- | --- | --- | --- | --- | --- | --- | --- | --- |
| TQKPLGLS [proteolytically cleavable peptide (CP), protease substrate] | 0.1 | 0.1 | 0.2 | 0.2 | 0.3 | 0.0 | 11.8 | 1.8 | 0.3 | 0.0 | – | – | – | – | – |
| PVSLRSGS [proteolytically cleavable peptide (CP), protease substrate] | 0.1 | 0.0 | 0.0 | 0.2 | 0.0 | 0.0 | 1.9 | 0.2 | 6.5 | 0.0 | – | – | – | – | – |
| RSKYLATA [proteolytically cleavable peptide (CP), protease substrate] | 0.0 | 0.0 | 0.0 | 0.3 | 1.9 | 0.0 | 0.0 | 0.0 | 0.0 | 0.0 | – | – | – | – | – |
| aldesleukin | – | – | – | – | – | – | – | – | – | – | 1.42 | – | – | – | – |
| RPLALWRS [proteolytically cleavable peptide (CP), protease substrate] | 0.2 | 0.0 | 0.0 | 0.5 | 0.3 | 0.1 | 1.1 | 0.2 | 0.2 | 0.0 | – | – | – | – | – |
| RQGGM*PKDLYHA*SAKQ (RQGGMPKDLYHASAKQ) [Alu-XT-091, * indicates cleavage site] | – | – | – | – | – | – | – | – | – | – | – | 5 | 1/5 | 15 | 5/5 |
| PANLVAPDP [proteolytically cleavable peptide (CP), protease substrate] | 7.2 | 0.7 | 0.4 | 0.1 | 0.0 | 2.7 | 31.2 | 2.5 | 8.8 | 1.8 | – | – | – | – | – |
| RVGPVSL*R*SGSGKI (RVGPVSLRSGSGKI) [Alu-XT-019, * indicates cleavage site] | – | – | – | – | – | – | – | – | – | – | – | 5 | 1/5 | 15 | 5/5 |
| APAGLIVPYN [proteolytically cleavable peptide (CP), protease substrate] | 0.5 | 2.1 | 0.1 | 0.2 | 1.0 | 0.0 | 29.6 | 2.4 | 1.8 | 1.6 | – | – | – | – | – |
| IVGRPRHQGV [proteolytically cleavable peptide (CP), protease substrate] | 0.0 | 0.0 | 0.1 | 0.6 | 1.9 | 0.0 | 0.0 | 0.0 | 0.0 | 0.0 | – | – | – | – | – |
